Data reported in paper PMC4369318.

Biological target: protective antigen (PA63 as LTx) in plasma or serum of subjects with inhalation anthrax (Bacillus anthracis (secreted during infection of rhesus macaques and humans))
Assay: co-IP

Sequence of protective antigen (PA63 as LTx) in plasma or serum of subjects with inhalation anthrax (Bacillus anthracis (secreted during infection of rhesus macaques and humans)) (P13423 30-764): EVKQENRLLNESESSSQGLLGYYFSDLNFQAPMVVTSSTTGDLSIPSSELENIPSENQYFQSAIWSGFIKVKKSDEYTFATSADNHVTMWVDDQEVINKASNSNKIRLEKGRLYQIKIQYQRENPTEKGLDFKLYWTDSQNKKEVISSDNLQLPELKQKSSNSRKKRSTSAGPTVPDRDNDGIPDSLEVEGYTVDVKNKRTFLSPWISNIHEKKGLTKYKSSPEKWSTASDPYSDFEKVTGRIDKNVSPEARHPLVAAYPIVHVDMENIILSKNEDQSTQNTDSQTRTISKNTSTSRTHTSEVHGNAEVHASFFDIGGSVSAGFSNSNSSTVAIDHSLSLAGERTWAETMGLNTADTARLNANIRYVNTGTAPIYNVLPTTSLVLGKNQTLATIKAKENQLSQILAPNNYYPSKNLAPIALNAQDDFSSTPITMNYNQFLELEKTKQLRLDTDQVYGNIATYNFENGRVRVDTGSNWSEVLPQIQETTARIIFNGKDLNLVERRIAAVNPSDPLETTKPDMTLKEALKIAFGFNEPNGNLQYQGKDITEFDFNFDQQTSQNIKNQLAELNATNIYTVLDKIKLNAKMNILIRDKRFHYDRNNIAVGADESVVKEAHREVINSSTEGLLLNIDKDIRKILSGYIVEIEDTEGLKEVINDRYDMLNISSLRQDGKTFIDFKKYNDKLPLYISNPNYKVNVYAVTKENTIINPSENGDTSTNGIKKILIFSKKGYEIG

lethal factor (LF) in plasma or serum of subjects with inhalation anthrax (from UniProt P15917 34-809) (enzyme)
LTx as percent of total LF (animal 16N, terminal stage): 100% | LTx as percent of total LF (animal 89N, terminal stage): 60%
